Assay results as given in patent US20260132464A1, “CIRCULAR RNAS FOR THE DIAGNOSIS AND TREATMENT OF BRAIN DISORDERS” (UNM Rainforest Innovations, priority 2018, published 2026).

How the values were obtained:
[1] = tested on: circHomer1a; test: circHomer1a expression (circRNA qRT-PCR) after 2 day drug treatment of stem cell-derived mixed neuronal and astrocyte cultures; format: cell-based; conditions: 2 days treatment, human 6-9 month differentiated stem cell-derived mixed neuronal and astrocyte cultures
Description: FIG. 6A is a representative bright-field image from 6-9 month differentiated human embryonic stem cell (hESC)-derived mature mixed neuronal and glial cultures.
FIG. 6B is an immunofluorescence image showing the presence of neurons (MAP2, red) and astrocytes (GFAP, green). Scale bar=100 μm.
05, two-tailed one sample t-test. The number of replicates is also shown within the graph.

[2] = tested on: OFC of subjects with SCZ and BD; test: circRNA-specific qRT-PCR in postmortem OFC of SCZ, BD and Control subjects; parameters: species or system human; conditions: for circRNA expression in OFC, BD patients vs unaffected Controls / circRNA expression in OFC, SCZ patients vs unaffected Controls: qRT-PCR, postmortem OFC
Description: 05, based on general linear model correcting for RIN, PMI, RI, and brain pH. A schematic showing the multi-exonic nature of circADAM22 is also shown.
In FIGS. 4A-C, E-F **p<. 01, based on a Univariate General Linear Model corrected for RIN, PMI, RI, and brain pH.
A schematic of the exonic nature of circHomer1b is also shown. In all graphs individual SCZ, BD, and Control sample values are shown. ***p<. 001, based on general linear model correcting for RIN, PMI, RI, and brain pH.
(§1) Given that harsh RNAseR treatment can partially digest some circRNAs together with all linear RNAs, thus making circRNA screening semi-quantitative, the present disclosure also provides novel validated and sequence-verified circRNA-specific qRT-PCR primers aimed at the unique circRNA-specific splice junction, which enable the measurement of a subset of dysregulated circRNAs in non RNaseR-treated samples. These primers are shown in FIGS. 3C, 8B, and 14A, B (See also SEQ ID NOS. 2, 3, 5, 6, 8, 9, 11 or 12).

[3] = tested on: DLPFC of subjects with SCZ and BD; test: circRNA-specific qRT-PCR in postmortem DLPFC of SCZ, BD and Control subjects; parameters: species or system human
Description: In all graphs individual SCZ, BD, and Control sample values are shown.
A schematic of the exonic nature of circHomer1b is also shown.
as §1

[4] = tested on: orbitofrontal cortex (OFC) of subjects with Bipolar Disorder; test: circRNA microarray profiling, OFC of subjects with Bipolar Disorder vs unaffected Controls (Table 3); parameters: species or system human
Description: (§2) Example of circRNA array raw image is also shown.
(§3) The circRNAs in Tables 3 and 4 were identified by profiling circRNA expression in OFC RNA samples from 34 SCZ, 32 BD, and 34 unaffected control subjects from the Stanley Medical Research Institute.
Additional methods for identifying these brain disorder-associated circRNA biomarkers are discussed below.

[5] = tested on: stem cell-derived (iPSC) neuronal cultures from patients with SCZ and BD; test: circHomer1a levels in iPSC-derived neuronal cultures from SCZ and BD patients vs Control; format: cell-based, human
Description: 05, two-tailed one sample t-test relative to the Control of the same developmental time-point.
05, two-tailed one sample t-test relative to the Control of the same developmental time-point. In all graphs individual samples are shown.

[6] = tested on: OFC of subjects with Schizophrenia; test: circRNA microarray profiling, OFC of subjects with Schizophrenia vs unaffected controls (Table 4); parameters: species or system human; conditions: relative to Control fold change of circRNA expression
Description: as §2
FIG. 1C is a volcano plot showing differential circRNA expression in SCZ patients vs unaffected Controls (x-axis=relative to control log 2 fold changes; y-axis: negative log 10 of the p-values). Vertical lines correspond to >1.25-fold changes, and the horizontal line represents p<. 05. Example of validated circRNAs are shown in the graph.
as §3
All circRNA array experiments used for Tables 1-4 were performed by employing a commercially available circRNA microarray platform that uses 13,617 circRNA splice junction probes designed based on previous RNA sequencing and circRNA annotation data (Service sold by Arraystar Inc.). Analysis of circRNA changes in postmortem brain samples from the OFC of subjects with BD uncovered a subset of differentially expressed circRNAs (Table 3) a subset of which stemmed from genes related to synaptic transmission, neuronal development and migration, and short term memory (FIGS. 1A-C, 2A-B), whereas altered circRNAs in SCZ (Table 4 and FIGS. 1A-C, 2A-B) were associated, among others, with the mitogen-activated protein kinase (MAPK/ERK) and protein kinase B (PKB/AKT) pathways. […]

## O=C(CCCN1CCC(O)(c2ccc(Cl)cc2)CC1)c1ccc(F)cc1 [Haloperidol]
[1]
  circHomer1a expression relative to Vehicle: lack of effect

## CCCC(CCC)C(=O)O [Valproic acid, valproic acid]
[1]
  circHomer1a expression relative to Vehicle: increase

B1: circHomer1b: circRNA generated from the backsplicing of exons 2 and 3 of HOMER1 pre-mRNA (nucleic acid, listed as Homo sapiens)
chain: GGAACAACCTATCTTCAGCACTCGAGCTCATGTCTTCCAAATTGACCCAAACACAAAGAAGAACTGGGTACCCACCAGCAAGCATGCAGTTACTGTGTCTTATTTCTATGACAGCACAAGAAATGTGTATAGGATAATCAGTTTAGATGGCTCAAAGGCAATAATAAATAGTACCATCACCCCAAACATGACATTTACTAAAACATCTCAGAAGTTTGGCCAGTGGGCTGATAGCCGGGCAAACACCGTTTATGGATTGGGATTCTCCTCTGAGCATCATCTTTCGAAA
modifications: circular RNA
notes: circRNA generated from the backsplicing of exons 2 and 3 of HOMER1 pre-mRNA
[2]
  circRNA expression in OFC, BD patients vs unaffected Controls: reduced
  circRNA expression in OFC, SCZ patients vs unaffected Controls: reduced
[3]
  circRNA expression in DLPFC, BD patients vs unaffected Controls: not

B2: circHomer1a: circRNA derived from exons 2-5 of Homer protein homolog 1 (HOMER1) (nucleic acid, listed as Homo sapiens)
chain: GGAACAACCTATCTTCAGCACTCGAGCTCATGTCTTCCAAATTGACCCAAACACAAAGAAGAACTGGGTACCCACCAGCAAGCATGCAGTTACTGTGTCTTATTTCTATGACAGCACAAGAAATGTGTATAGGATAATCAGTTTAGATGGCTCAAAGGCAATAATAAATAGTACCATCACCCCAAACATGACATTTACTAAAACATCTCAGAAGTTTGGCCAGTGGGCTGATAGCCGGGCAAACACCGTTTATGGATTGGGATTCTCCTCTGAGCATCATCTTTCGAAATTTGCAGAAAAGTTTCAGGAATTTAAAGAAGCTGCTCGACTAGCAAAGGAAAAATCACAAGAGAAGATGGAACTTACCAGTACACCTTCACAGGAATCCGCAGGCGGGGATCTTCAGTCTCCTTTAACACCGGAAAGTATCAACGGGACAGATGATGAAAGAACACCTGATGTGACACAGAACTCAGAGCCAAGGGCTGAACCAACTCAGAATGCATTGCCATTTTCACATAG
modifications: circular RNA
[4]; circRNA expression, OFC of subjects with Bipolar Disorder vs unaffected Controls
  Fold BD OFC: 0.6440
[2]; SCZ and BD patients (FIGS. 4H, 5D; OFC and DLPFC)
  correlation of expression with duration of illness: positively correlated
[2]; SCZ patients (FIGS. 4G, 5C; OFC and DLPFC)
  correlation of expression with age of onset of disease: positively correlated
[2]
  circRNA expression in OFC, BD patients vs unaffected Controls: reduced
  circRNA expression in OFC, SCZ patients vs unaffected Controls: reduced
[3]
  circRNA expression in DLPFC, BD patients vs unaffected Controls: reduced
[3]; SCZ
  circRNA expression in DLPFC, SCZ patients vs unaffected Controls: reduced
[5]
  circHomer1a expression in iPSC neuronal cultures, patients vs Control: reduced

B3: circADAM22: circRNA derived from the epilepsy-related gene ADAM metallopeptidase domain 22 (ADAM22) (nucleic acid, listed as Homo sapiens)
chain: GTGAATGTAAATGCGAGGACACGTGGTCCGGGTGCATAATGGGAGACACTGGCTATTATCTTCCTAAAAAGTTCACCCAGTGTAATATTGAAGAGTATCATGACTTCCTGAATAGTGGAGGTGGTGCCTGCCTTTTCAACAAACCTTCTAAGCTTCTTGATCCTCCTGAGTGTGGCAATGGCTTCATTGAAACTGGAGAGGAGTGTGATTGTGGAACCCCGGCCGAATGTGTCCTTGAAGGAGCAGAGTGTTGTAAGAAATGCACCTTGACTCAAGACTCTCAATGCAGTGACGGTCTTTGCTGTAAAAAGTGCAAGTTTCAGCCTATGGGCACTGTGTGCCGAGAAGCAGTAAATGATTGTGATATTCGTGAAACGTGCTCAGGAAATTCAAGCCAGTGTGCCCCTAATATTCATAAAATGGATGGATATTCATGTGATGGTGTTCAGGGAATTTGCTTTGGAGGAAGATGCAAAACCAGAGATAGACAATGCAAATACATTTGGGGGCAAAAGGTGACAGCATCAGACAAATATTGCTATGAGAAACTGAATATTGAAGGGACGGAGAAGGGTAACTGTGGGAAAGACAAAGACACATGGATACAGTGCAACAAACGGGATGTGCTTTGTGGTTACCTTTTGTGTACCAATATTGGCAATATCCCAAGGCTTGGAGAACTCGATGGTGAAATCACATCTACTTTAGTTGTGCAGCAAGGAAGAACATTAAACTGCAGTGGTGGGCATGTTAAGCTTGAAGAAGATGTAGATCTTGGCTATGTGGAAGATGGGACACCTTGTGGTCCCCAAATGATGTGCTTAGAACACAGGTGTCTTCCTGTGGCTTCTTTCAACTTTAGTACTTGCTTGAGCAGTAAAGAAGGCACTATTTGCTCAGGAAATGGAGTTTGCAGTAATGAGCTGAAGTGTGTGTGTAACAGACACTGGATAGGTTCTGATTGCAACACTTACTTCCCTCACAATGATGATGCAAAGACTGGTATCACTCTGTCTGGCAATGGTGTTGCTGGCACCAATATCATAATAGGCATAATTGCTGGCACCATTTTAGTGCTGGCCCTCATATTAGGAATAACTGCGTGGGGTTATAA
modifications: circular RNA
[4]; circRNA expression in OFC, Bipolar Disorder vs unaffected Controls
  Fold BD OFC: 0.5247
[2]
  circRNA expression in OFC, BD patients vs unaffected Controls: decreased expression
  circRNA expression in OFC, SCZ patients vs unaffected Controls: unchanged

B4: circCUL4A: circRNA biomarker for brain disorders, increased in OFC of SCZ patients (nucleic acid, listed as Homo sapiens)
chain: GTCACGTCCCGTGTGGCTGTGGAGATCTCTGTGTGACTATGGAGGTTTCATCCATGTGGCTCTGAAGGTCTCTGTGTGACTATGGAGGTCGCGTCCCATGTGGCTGTGGAGGTCGCTGTGTGGCTATGGAG
modifications: circular RNA
notes: circRNA biomarker for brain disorders, increased in OFC of SCZ patients
[6]
  Fold SCZ OFC: 1.4626
[2]
  circRNA expression in OFC, BD patients vs unaffected Controls: unchanged
  circRNA expression in OFC, SCZ patients vs unaffected Controls: increased expression
